Source: article doi:10.1101/2023.03.29.533101 (bioRxiv, 2023)
Read-outs that look alike come from different tables or passages of the source.

Experiments:
crystal structure [1] = biological target: the molecule itself; experiment: crystal structure
crystal structure [2] = biological target: the molecule itself; experiment: crystal structure; remark: listed apart in the source

B1: OpgD from E. coli (EcOpgD) D388N mutant (enzyme, Escherichia coli, UniProt P40120 33-551, looked up)
chain: ADSDIADGQTQRFDFSILQSMAHDLAQTAWRGAPRPLPDTLATMTPQAYNSIQYDAEKSLWHNVENRQLDAQFFHMGMGFRRRVRMFSVDPATHLAREIHFRPELFKYNDAGVDTKQLEGQSDLGFAGFRVFKAPELARRDVVSFLGASYFRAVDDTYQYGLSARGLAIDTYTDSKEEFPDFTAFWFDTVKPGATTFTVYALLDSASITGAYKFTIHCEKSQVIMDVENHLYARKDIKQLGIAPMTSMFSCGTNERRMCDTIHPQIHDSDRLSMWRGNGEWICRPLNNPQKLQFNAYTDNNPKGFGLLQLDRDFSHYQDIMGWYNKRPSLWVEPRNKWGKGTIGLMEIPTTGETLNNIVCFWQPEKAVKAGDEFAFQYRLYWSAQPPVHCPLARVMATRTGMGGFSEGWAPGEHYPEKWARRFAVDFVGGDLKAAAPKGIEPVITLSSGEAKQIEILYIEPIDGYRIQFDWYPTSDSTDPVDMRMYLRCQGDAISETWLYQYFPPAPDKRQYVDDRVMS
B1: binds (crystal structure [1]).

B2: OpgG from E. coli (EcOpgG) D361N mutant (enzyme, Escherichia coli, UniProt P33136 23-511, looked up)
chain: FSIDDVAKQAQSLAGKGYETPKSNLPSVFRDMKYADYQQIQFNHDKAYWNNLKTPFKLEFYHQGMYFDTPVKINEVTATAVKRIKYSPDYFTFGDVQHDKDTVKDLGFAGFKVLYPINSKDKNDEIVSMLGASYFRVIGAGQVYGLSARGLAIDTALPSGEEFPRFKEFWIERPKPTDKRLTIYALLDSPRATGAYKFVVMPGRDTVVDVQSKIYLRDKVGKLGVAPLTSMFLFGPNQPSPANNYRPELHDSNGLSIHAGNGEWIWRPLNNPKHLAVSSFSMENPQGFGLLQRGRDFSRFEDLDDRYDLRPSAWVTPKGEWGKGSVELVEIPTNDETNNNIVAYWTPDQLPEPGKEMNFKYTITFSRDEDKLHAPDNAWVQQTRRSTGDVKQSNLIRQPDGTIAFVVDFTGAEMKKLPEDTPVTAQTSIGDNGEIVESTVRYNPVTKGWRLVMRVKVKDAKKTTEMRAALVNADQTLSETWSYQLPANE
B2: binds (crystal structure [2]).
